According to the DeepSol protein solubility set:

assay: soluble on expression in E. coli; label from the status in PepcDB or PDB records

| Sequence | soluble on expression in E. coli |
| --- | --- |
| MGSDKIHHHHHHVGYPRDFQLNYATLFSVSPLVIDWGSYSQIEAEMRLFQAAAPGKYAYYHLLSGLDLPLANQDEIHAFFAAHPGKEFITYSSQKNGAQLLARVQKYHFTHNFRQPNKAMRLFRKIEKAEQRVFPVRKKFAGTLAFGSNWVSLENDLVQVLLREDDRIRTMFARGFLVDELLVPTMLNIYPEFKDRIYYDRPVHDRPEEFQGSLRYINWWDGSPYVWREKDYETLLAARRQGHLFSRKFDAEVDKAIIDKIAGQLLEIK | not soluble |
| MGSDKIHHHHHHMAKVPAKAKPEHALLAVPRELMPRDLRVSLHDYTRGGTDRFLTNGQGAKQDMTGFEDQYVNIIDYIVRITHRIWEEKDIGYIYDTYAHNCRVWDDVGLQYGRDKIVADTTHTINAFPDVKLYADEVIWAGDAEHGFHTSHRTVIKGTNTGFSRWGPPTMRPVNVWCIANCVARENEIFEEHVQYNLGAMLQQLGFDLRALAATARAIGIETDPLFAASGRTRVPGQGKPAHGTPRGDGPFDVADFLCSMTQDVWNRRMLSRLTRAYAPALNYQGPTNRSYRSLAQYQSALLSLLAMFPDLSFEPEALYYMEDGKGTTWSSLRWSATGSHGGFGPYGTPTGREVRIWGITQHKIEGETITEEWMQFNEFDLLRQLAPDPVV | not soluble |
| MGSDKIHHHHHHMILGIDVGGTSVKFGLVTPEGEIQNATRFMTADWVNGIGFVESMKLEIGNFLKQYPIVKGVGIGWPGLVSLDRTKVILLPNIPSVVNVPIVEILRSEFPHIHFKIENDAKCAALGEYYFGENKRMQTFILLALGTGVGSGVMMNGKLFIGGRGNGTEVGHMLTTRGKSLENQVGINHLIAYTHEQLALDVAKKSSLHTIAELSPKVIADHAAQGDALALAVWADIGTIIGESLVNIVRVMDLNNILLGGGISGAFDYFVPNLKKAMLEHLPTYYTDDMYIGKATLENDAGLLGAAGLIMEAI | not soluble |
| VNYRTPAEIMSVANELLTQINPDIAPAMAIRESGREVVNLPLDADLSAVMDSLREEDSQRTIAVISSRRHHESDFYLVDDIKGLEFDHVIVVDPAGIVEESPQGLQDLYVAVTRATQSLTILGE | not soluble |
| MKQKKAWAIVKEVIEEADIVVEVVDARDPIGTRNKKLERMVLESGKKLLLVMNKADLVPKEWAEEYKRKSEIPVVFISARERKGTGILRRELKKIAKMINKERVKVALIGYPNVGKSTIINVLKGKHSVGTAPIPGYTKGKQMIRLTKKIWLLDTPGVVPIDDFDELVIKGGFPADKIREPVKPALKLIRRILETRKEALTEKFNITEFEDEEDILRKIGERRGIIREGGVVDIEETARWFLREWQTGRFTLFSTEEKREEEYIESFDEILEIIKEQNLTDPRMIIWKFGNILEDYLGAERRFGAIKVGEFMIAIATGFKKCPNAIKFVERITRKNAVAAECFGKKWKGIVAILE | soluble |
| GSSHHHHHHSSGRENLYFQGHMARPGMERWRDRLALVTGASGGIGAAVARALVQQGLKVVGCARTVGNIEELAAECKSAGYPGTLIPYRCDLSNEEDILSMFSAIRSQHSGVDICINNAGLARPDTLLSGSTSGWKDMFNVNVLALSICTREAYQSMKERNVDDGHIININSMSGHRVLPLSVTHFYSATKYAVTALTEGLRQELREAQTHIRATCISPGVVETQFAFKLHDKDPEKAAATYEQMKCLKPEDVAEAVIYVLSTPAHIQIGDIQMRPTGS | soluble |
| SKVALITGVTGQDGSYLAEFLLEKGYEVHGIKRRASSFNTERVDHIYQDPHTCNPKFHLHYGDLSDTSNLTRILREVQPDEVYNLGAMSHVAVSFESPEYTADVDAMGTLRLLEAIRFLGLEKKTRFYQASTSELYGLVQEIPQKETTPFYPRSPYAVAKLYAYWITVNYRESYGMYACNGILFNHESPRRGETFVTRKITRAIANIAQGLESCLYLGNMDSLRDWGHAKDYVKMQWMMLQQEQPEDFVIATGVQYSVRQFVEMAAAQLGIKLRFEGTGVEEKGIVVSVTGHDAPGVKPGDVIIAVDPRYFRPAEVETLLGDPTKAHEKLGWKPEITLREMVSEMVANDLEAAKKHSLLKSHGYDVAIALES | soluble |
| MDNKIVYVVSDSVGETADLVVRAAMGQFPFAPDIRRVPYVEDTGTLKEVISIAKSNQALICFTLVKPDMRQYLVTEAAKEGVEAYDIIGPLIDQIEEITGQVPRYEPGVVRRLDEEYFKKIEAIEFAVKYDDGRDARGILKADIVLIGISRTSKTPLSQYLAHNKRLKVANVPLVPEVDPPEELYQVAKEKCFGLKITPEKLNHIRKERLKSLGLSDGATYANINRIKEEIDHFENVVSKINCQVIDVSNKAIEETANIIVNAVQNQKMFMAGDPLEHHHHHH | soluble |
| MLFDTHAHLNAVQYEEDLEQVIERARDEGVSHIVVVGFDRPTIDRAIELAERYPFIYAAVGWHPVDAIEMTDDDLQMIEQLAAHPKVVALGEMGLDYHWDKSPKDVQQEVFRQQIRLAKKVKLPIIIHNREATADILKILQEENAAEVGGIMHCFSGSVEVAKQCMDMNFLISLGGPVTFKNAKKPKEVAKEIPLSHLLIETDCPYLTPHPFRGKRNEPSYVKYVAEAIAQIKNISFAEVAETTAENAKKLFAIDR | not soluble |
| VDNVLVIIGPTASGKTKLAIEIAKRANGEIISADSMQIYKYMDIGTAKPDEEEKEGIKHYLIDEVTPDEEFSVARFKELALKYIDEILSKGKLPIVAGGTGLYINSLIYNLEFSDTICDWELRKKLEQEAKEKGNEYLHNKLKEIDPKAAEKIHMNNVKRVIRAIEVYTYTKKPISVHQEESRKNPPRHNFILIGITMDREKLYDRINKRVDLMLEKGLVKEVEKLVEMGYDKSTIAMQGLGYKEILSYLRGERSLDEAVEILKRDTRRYAKRQMTWFRKIENVYWINKDEFDSDEKIIKNLKYYLATFGIFL | soluble |
| MGSDKIHHHHHHATVTDSASTDIGIGFSGHGPGTTPGPLDIQWAPIGLDFSNSNMVNTTAVQAFPETTGTNKYVVVSEKRSNEPTREWSLTAQLSDLTNAGGSETLTGAGLKFDAAVKGYTGTNTPESPGSIVDKGARTATVNASSQSVTAGAAAVPVMKDAGTGGASFLGSTAMEMSNVKLEVPANAAKINQQYSGTLTWSLNDTI | not soluble |
| MAGDSTDKAFQNFAYLLFLRNILTKSNFSETKNKPEAYNQFLFQKLKKILNLFQILQFILENIHCKPGDRIAILFAYSNDLDRNVVKNVWNTADFGFYSHFLVFANVRFDVRQEEEILFHYSYLNATSSVFSKLPDSSLGFGNNATGSDSLKTIDVGKFYSNNQVPVCGSIVLILSKRYPNELKILEVSRKVQEHHGIVHVISSVFPSGGTQSKALYKLTSRTNGICAFQEDSQFSEVSDFINISSKYYDGWHLLSHIVGSLPISGTPYPIYSVNPRVSGLGSLVLPSLSVPFSGRFYFVVTVQDHGPIDTFRSINLSWYNAKSRSSNHFLISNGQKYEINREEWFDLDPVIYNMTLNYSYLTFQDIQIRVYSSRPPEDWLPCCDSTN | not soluble |
| GPGSMVERTADQRIRTTEWEEVQYKFGNRVGKYATNEVELLAQKIADNNLNAPLKAYDPHEEKVMDKVERGGYDTGRAEEEGGPAFDDALPDDDDEALAAFRRKRLAELQRQKEVERFGVLRHVSGADYMTEVTEASSTNWVVAVLIKPGHDNCEALLSVMRVAAQRHRDVKFLSMVSTEAIKNFPDRHLPCVLLYRDKKLENQLTEVASWKGKQNRLSLESVERVLHRYGVIRNTDYDHDDDDDDA | not soluble |
| MGSDKIHHHHHHMVKTNVTIMRGGTSKGVFFHESAMPNNKNEWEPFLLDVMGSPDKRQIDGLGGGNSLTSKVAIIKKAYTSDIDVHYTFGQVSISEEKVDFKGNCGNISAAVGPFAIEEGLVKAKEPMTAVRILNTNTNKMIIAEVEVEDGQVKYDGDVTISGVPGSGSPIYLNFHDAAGSVTGHLLPTGNSSEFLDTSQGQIEVSIIDYANPLVFVEASSIGLDGTELAEEFTDLQLAQFEELRSIAAEKCGFASRFSATKLSPAVPKLAIVAKPEKYKDSTGAWHSSVEMDLHIRMMSMQKSHQALAVTGAICTTRALSVEGAIPARIAKNHSTKVRLAHSSGIIETMVEPTGIKIVRTARRIMDGTVYTHGDYQMM | not soluble |
| MKFPGQRKSKHYFPVKTRDPLLEQLTQQPQPFATYISGIDQTLVDIEAKVEDELLSRYGLPKGNSTLINDEQAHRLYTELKIHGLISDEFAGGTIGNTVHNYSILADDRSVLFGVMSQNIEVGSYAYRYLCNTSSKVDLNYLQPVDGPIGRCFTLISDCGERTFAISKGAMDKLTPEFIDKDVVQGSSALVLTAYLMRASGGDRITDAAMCAIEYAKAADVPVVLTLGTRFLIEEDPLWWQNFIKEHVTILAMNEDEGEALTGSRDPLLASEKALEWCDMVLTTAGPIGLYTAGYTEDSEKRETTHTLLPGAIPEFNRYEFSRPKLKSDCETPIKVYAHISPYMGGPEKIGNTNGAGDGALSALLHDLAANTFHKTNVPGSSKHKRDGLCYSSFSQICKYANRVAYEVLAQHSPRLSRGLPEREDSLEESYWER | soluble |
| SMGTKLKKSNNDITIFSENEYNEIVEMLRDYSNGDNLEFEVSFKNINYPNFMRITEHYINITPENKIESNNYLDISLIFPDKNVYRVSLFNQEQIGEFITKFSKASSNDISRYIVSLDPSDDIEIVYKNRGSGKLIGIDNWAITIKSTEEIPLVAGKSKISKPKITGSERIMYRYKTRYSFTINKNSRIDITDVKSSPIIWKLMTVPSNYELELELINKIDINTLESELLNVFMIIQD | soluble |
| MGSDKIHHHHHHMRFMFLHPRLSLEGDPLGLMQLSASLKQRGHIVGLTLLTEDYIEAIRSFQPDMLGVSLMSSDAVMMHQVLNKVRMVFPDLFIIVGGPHPTFDPSCLMVLPVNAICVGEGDEALVEALEQYGREGHVEGIRNVGTVTTPVTLRPLVSDLDDLPFIDRDIVYAKNHIVRDFPLKTFAASRGCHFKCTYCFNHAYNAMYAGLGHVVRRRSVDHLIAEMRDVIARYPTSYIKISDDSFTYRVDSWLEEFAEKYPRLIGLPFYCLLRADVVTRDMVRLLREAGCRSVCMSIEAGAETVRRDVLNRRVSNEKIIESFDLFNEAGIAIYTNSMLAMPRATLADDIATLDLNIRCRPTLGHFTIMAPFPGTRIHDMCEKDGILPERCGGDGDIPTSTGELSKLTTYTDEEKNIQKNIVLLGPLVIRFPVLRGVFLRCLAKLPSNNILFKCIYTVTKNLLFKRIVPVRMSPLLMLRIAIAQVKAARTQVG | not soluble |
| MSLYGRHTISIILREIFRLMDYPSIDTLLESAHIVTLPMKYPFMGLSERQAVLFEGPNSWAEYSPFMGCNDTRMWLASAIEYGWGNTNVLSVPNLDLDNTNFASRSKYGYIANPQTSNKDHSDNKRFYTQTKNHREIPVNAILPDIPASKMSEILGKDLQGCKCVKIKVGKHFQDRDIHRIRAVLDFMGADTMLRLDANCKWNVSETLNNLDVLEDNDLLENVSYIEQPCRTTRELITLKQKMDTRGYVTKIAIDESLRDLLLHWQKNRKWSNNSGITYTTELRETLSACDMLVLKLQPMGGMRAVADLLESIKNNIKVNVGYTVSSSLETSLGIEMGLALALNLPNITLPVGLATAGLLDADITDDPLLPNKGYITPRKIEVNKKLLNRYAADKRHVVWWHRRIRAAHRALFQDLSDEGHHHHHH | not soluble |
| MNYHVYHSIDVVNGPGTRCTLFVSGCEHNCKGCYNKSTLNPNSGHLFTKELEDKIIADLNDTRIPRRGLSLSGGDPLHPMNCESVLKLVKRVKSECENKDIWMWTGYTLSELNPTQKEIVDLIDTLIDGRFEQDKADPSLDWRGSSNQIIHTFNVLLEHHHHHH | not soluble |
| MVNQQEEINLSVALVTRNRPDSLERCLKSLRDQKVQPFEVVVSDDSDDLYKSSTKEIAQKWGCRYIDGPKRGLYANRNYVALACYGTHIRTMDDDHEFPEQHIEVCLNAIQSDPSSIWIIGEYSPTSSIENAPHPCPGQLHPRGFSFYPKDTQNCWAIADGASIYPKKIFASGLRFVEYYKFGASYLEWGSRLYYLSYRIRHLDSTYIIHHFNPKARSFSDQEMDQSSRFFAMLCHSFLYQSTFKNKCLFSYEILKQFILDPKLTIKCIINSWSNFELFSRSFCALEHHHHHH | not soluble |
